Data published in the supplement of paper PMC10567573.

B1: DVL3 (parent)
chain: FCADNPSELPPPMERTGGIGDSRP
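Also: lentivirally expressed fusions sorted by FACS into six bins by GFP to DsRed ratio, PSI derived from sequencing read proportions per bin multiplied by bin number.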

Variants of: B1
Experiment: protein stability index of a GFP-peptide fusion (GPS, HEK-293T) (PSI 1-6); higher = more stable
Conditions: c terminus: a fixed tail appended
D21L gave a protein stability index of 3.48. Variant D21G has a protein stability index of 4.36. In the case of D21M, the protein stability index is reported as 3.67. For D21I, the protein stability index was 3.77. For D21A, the protein stability index was 4.36. Variant D21K has a protein stability index of 4.21. For D21H, the protein stability index was 4.37. D21F gave a protein stability index of 3.89. D21S showed a protein stability index of 4.35. In the case of D21T, the protein stability index is reported as 4.52. In the case of D21Q, the protein stability index is reported as 4.58. In the case of D21Y, the protein stability index is reported as 3.92. In the case of D21W, the protein stability index is reported as 2.97. In the case of D21P, the protein stability index is reported as 4.16. For D21C, the protein stability index was 3.98. With D21R the protein stability index was 3.71. In the case of D21N, the protein stability index is reported as 4.11. Work on D21E yielded a protein stability index of 5.27. I19D showed a protein stability index of 4.94. Variant I19Y has a protein stability index of 4.35. Work on I19V yielded a protein stability index of 5.09. I19Q gave a protein stability index of 4.65. Work on I19N yielded a protein stability index of 4.82. I19R showed a protein stability index of 4.74. Variant I19E has a protein stability index of 5.77. For I19T, the protein stability index was 4.31. Variant I19H has a protein stability index of 5.16. With I19A the protein stability index was 5.33. For I19C, the protein stability index was 4.94. With I19M the protein stability index was 4.8. In the case of I19K, the protein stability index is reported as 5.59. For I19S, the protein stability index was 5.22. With I19F the protein stability index was 4.37. I19W showed a protein stability index of 3.51. With S22W the protein stability index was 3.97. With S22N the protein stability index was 5.01. Variant S22T has a protein stability index of 4.7. Work on S22R yielded a protein stability index of 4.29. With S22D the protein stability index was 4.88. S22P gave a protein stability index of 4.63. In the case of S22K, the protein stability index is reported as 4.77. With S22F the protein stability index was 3.28. S22A gave a protein stability index of 4.61. Variant S22C has a protein stability index of 3.55. S22G gave a protein stability index of 4. S22L gave a protein stability index of 4.4. Variant S22E has a protein stability index of 5.23. Variant S22H has a protein stability index of 4.34. In the case of S22Y, the protein stability index is reported as 4.23. Variant S22M has a protein stability index of 4.09. S22V gave a protein stability index of 4.15. S22Q showed a protein stability index of 5.11. In the case of S22I, the protein stability index is reported as 4. With G20I the protein stability index was 4.48. Work on G20M yielded a protein stability index of 4.18. With G20S the protein stability index was 4.4. Variant G20P has a protein stability index of 5.08. Work on G20E yielded a protein stability index of 4.53. In the case of G20H, the protein stability index is reported as 4.18. Work on G20Q yielded a protein stability index of 4.79. In the case of G20R, the protein stability index is reported as 3.83. With G20N the protein stability index was 4.54. With G20K the protein stability index was 4.32. With G20F the protein stability index was 3.78. G20Y showed a protein stability index of 3.45. G20A gave a protein stability index of 4.68. Variant G20T has a protein stability index of 4.66. For G20V, the protein stability index was 4.49. G20D showed a protein stability index of 4.51. G20C gave a protein stability index of 4.12. With G20L the protein stability index was 3.76. Work on R23Y yielded a protein stability index of 4.15. For R23I, the protein stability index was 4.18. Work on R23G yielded a protein stability index of 4.72. With R23E the protein stability index was 4.95. With R23C the protein stability index was 4.59. For R23K, the protein stability index was 4.94. R23T showed a protein stability index of 5.04. Work on R23S yielded a protein stability index of 4.75. For R23L, the protein stability index was 3.74. Variant R23F has a protein stability index of 3.55. R23N showed a protein stability index of 5.22. R23Q gave a protein stability index of 4.56. Variant R23W has a protein stability index of 2.21. For R23D, the protein stability index was 5.18. For R23H, the protein stability index was 5.02. With R23M the protein stability index was 4.12. With R23V the protein stability index was 4.46. With R23A the protein stability index was 4.89. In the case of G17A, the protein stability index is reported as 4.51. Variant G17T has a protein stability index of 4.48. With G17I the protein stability index was 4.09. G17D showed a protein stability index of 4.61. In the case of G17H, the protein stability index is reported as 4.69. G17Y showed a protein stability index of 3.91. Variant G17S has a protein stability index of 4.3. With G17N the protein stability index was 4.74. G17E showed a protein stability index of 4.54. In the case of G17M, the protein stability index is reported as 4.48. In the case of G17P, the protein stability index is reported as 4.85. Variant G17Q has a protein stability index of 4.73. With G17K the protein stability index was 4.89. Variant G17F has a protein stability index of 3.79. Work on G17R yielded a protein stability index of 4.62. Work on G17V yielded a protein stability index of 4.12. Variant G17L has a protein stability index of 4.12. With P24R the protein stability index was 5.16. P24C gave a protein stability index of 4.39. P24M showed a protein stability index of 3.65. With P24N the protein stability index was 4.6. For P24I, the protein stability index was 4.32. For P24K, the protein stability index was 4.92. For P24D, the protein stability index was 4.86. P24A showed a protein stability index of 3.79. P24G gave a protein stability index of 4.71. In the case of P24S, the protein stability index is reported as 4.73. P24E gave a protein stability index of 5.45. P24Q showed a protein stability index of 4.58. Variant P24H has a protein stability index of 4.66. Work on P24F yielded a protein stability index of 3.82. Variant P24L has a protein stability index of 3.96. G18Y showed a protein stability index of 3.38. Work on G18K yielded a protein stability index of 4.88. With G18L the protein stability index was 4.34. G18D gave a protein stability index of 4.77. G18F showed a protein stability index of 4.03. In the case of G18A, the protein stability index is reported as 4.49. G18W showed a protein stability index of 3.41. Work on G18S yielded a protein stability index of 4.64. With G18C the protein stability index was 4.57. With G18M the protein stability index was 4.17. With G18V the protein stability index was 4. Variant G18R has a protein stability index of 4.34. Variant G18N has a protein stability index of 4.89. G18P showed a protein stability index of 4.04. With G18T the protein stability index was 4.47. Variant G18I has a protein stability index of 4.05. G18E showed a protein stability index of 5.06. Work on G18H yielded a protein stability index of 4.34. G18Q showed a protein stability index of 4.81. For T16P, the protein stability index was 3.87. For T16C, the protein stability index was 4.07. T16N gave a protein stability index of 4.7. With T16V the protein stability index was 4.02. Work on T16L yielded a protein stability index of 3.8. With T16D the protein stability index was 5.18. For T16Q, the protein stability index was 5. T16W showed a protein stability index of 2.55. Variant T16H has a protein stability index of 4.33. Work on T16Y yielded a protein stability index of 3.96. For T16M, the protein stability index was 4.11. T16F showed a protein stability index of 3.95. Variant T16I has a protein stability index of 3.98. Variant T16R has a protein stability index of 4.5. Variant T16A has a protein stability index of 4.6. T16G showed a protein stability index of 4.45. Work on T16E yielded a protein stability index of 4.45. T16S showed a protein stability index of 4.25. Variant T16K has a protein stability index of 4.29. With R15W the protein stability index was 3.77. R15V gave a protein stability index of 4.5. R15T gave a protein stability index of 4.55. In the case of R15Q, the protein stability index is reported as 4.37. With R15N the protein stability index was 4.79. Work on R15S yielded a protein stability index of 4.82. In the case of R15P, the protein stability index is reported as 4.99. Variant R15Y has a protein stability index of 4.39.
